Columns and labels:
Experiment in all cases: MTAP substrate assay, coupled spectrophotometric (adenine, xanthine oxidase)
Type in all cases: biochemical, human
Details in all cases: other: substrate of MTAP, 37° C.
[1] = substrate: Nc1ncnc2c1ncn2[C@@H]1O[C@H](CCc2ccccc2)[C@@H](O)[C@H]1O
Description: (§1) An enzymatic assay to determine the activity of MTAP against a given substrate was performed. Human MTAP containing an N-terminal six-histidine tag was expressed in E. coli BL21 DE3 cells. The protein was purified to homogeneity by Ni2+ affinity chromatography. Enzymatic activity was measured using a coupled spectrophotometric assay designed to monitor the reaction product adenine (Savarese, T. M., Crabtree, G. W., and Parks, R. E. Jr., (1980) Biochem. Pharmacol. 30, 189-199). Various concentrations of the indicated 5′-deoxymethylthio adenosine (MTA) or substrate were incubated in assay buffer (40 mM potassium phosphate buffer, 1 mM, and DTT 0.8 units/ml xanthine oxidase coupling enzyme) for 5 minutes at 37° C. The reaction was initiated by the addition of MTAP. The exact concentration of enzyme used varied for each substrate tested and ranged from 2 nM to 500 nM. Activity as a function of enzyme concentration was determined for each substrate tested to ensure that the appropriate enzyme concentration was used. Activity was detected by continuous monitoring of absorbance at 305 nm for 10 minutes (ΔE=15,500 M^−1).
(§2) Library compounds (10 and 50 uM) were tested using the assay described above with 2 nM MTAP enzyme. The resultant initial velocities are reported as a percentage of the initial velocity observed when MTA is the substrate. MTA controls, 10 and 50 uM concentrations, were run on each plate alongside the library compounds.

[2] = substrate: Nc1ncnc2c1ncn2[C@@H]1O[C@H](COc2cccnc2)[C@@H](O)[C@H]1O
Description: as §1, §2

[3] = substrate: CC(C)CCSC[C@H]1O[C@@H](n2cnc3c(N)ncnc32)[C@H](O)[C@@H]1O
Description: as §1, §2

[4] = substrate: Nc1ncnc2c1ncn2[C@@H]1O[C@H](CSc2ccc(C(F)(F)F)cc2)[C@@H](O)[C@H]1O
Description: as §1, §2

[5] = substrate: C[C@H]1O[C@@H](n2cnc3c(N)ncnc32)[C@H](O)[C@@H]1O
Description: as §1, §2

[6] = substrate: Cc1ccc(SC[C@H]2O[C@@H](n3cnc4c(N)ncnc43)[C@H](O)[C@@H]2O)cc1
Description: as §1, §2

[7] = substrate: Nc1ncnc2c1ncn2[C@@H]1O[C@H](CSc2ncc[nH]2)[C@@H](O)[C@H]1O
Description: as §1, §2

[8] = substrate: Nc1ncnc2c1ncn2[C@@H]1O[C@H](CSc2ncccn2)[C@@H](O)[C@H]1O
Description: as §1, §2

[9] = substrate: Nc1ncnc2c1ncn2[C@@H]1O[C@H](CNCc2ccc(F)cc2)[C@@H](O)[C@H]1O
Description: as §1, §2

[10] = substrate: Nc1ncnc2c1ncn2[C@@H]1O[C@H](COc2ccccn2)[C@@H](O)[C@H]1O
Description: as §1, §2

[11] = substrate: Nc1ncnc2c1ncn2[C@@H]1O[C@H](CSCc2ccccc2)[C@@H](O)[C@H]1O
Description: as §1, §2

[12] = substrate: Nc1ncnc2c1ncn2[C@@H]1O[C@H](CNCCO)[C@@H](O)[C@H]1O
Description: as §1, §2

[13] = substrate: Nc1ncnc2c1ncn2[C@@H]1O[C@H](CNc2ccccc2)[C@@H](O)[C@H]1O
Description: as §1, §2

[14] = substrate: Nc1ncnc2c1ncn2[C@@H]1O[C@H](C(=O)NCCO)[C@@H](O)[C@H]1O
Description: as §1, §2

[15] = substrate: Nc1ncnc2c1ncn2[C@@H]1O[C@H](CSC2CCCC2)[C@@H](O)[C@H]1O
Description: as §1, §2

[16] = substrate: CCSC[C@H]1O[C@@H](n2cnc3c(N)ncnc32)[C@H](O)[C@@H]1O
Description: as §1, §2

[17] = substrate: Cc1ccccc1SC[C@H]1O[C@@H](n2cnc3c(N)ncnc32)[C@H](O)[C@@H]1O
Description: as §1, §2

[18] = substrate: COc1ccccc1SC[C@H]1O[C@@H](n2cnc3c(N)ncnc32)[C@H](O)[C@@H]1O
Description: as §1, §2

[19] = substrate: CCCCSC[C@H]1O[C@@H](n2cnc3c(N)ncnc32)[C@H](O)[C@@H]1O
Description: as §1, §2

B1: Human MTAP (Homo sapiens) (protein)
chain: MASGTTTTAVKIGIIGGTGLDDPEILEGRTEKYVDTPFGKPSDALILGKIKNVDCVLLARHGRQHTIMPSKVNYQANIWALKEEGCTHVIVTTACGSLREEIQPGDIVIIDQFIDRTTMRPQSFYDGSHSCARGVCHIPMAEPFCPKTREVLIETAKKLGLRCHSKGTMVTIEGPRFSSRAESFMFRTWGADVINMTTVPEVVLAKEAGICYASIAMATDYDCWKEHEEAVSVDRVLKTLKENANKAKSLLLTTIPQIGSTEWSETLHNLKNMAQFSVLLPRH
notes: six-histidine tag (His6) (N); made in house; host or cells: E. coli BL21 DE3
[1]
  Km: 1.3 µM
  kcat: 4.6 s⁻¹
[2]
  Km: 33 µM
  kcat: 0.126 s⁻¹
[3]
  Km: 2.8 µM
  kcat: 5.5 s⁻¹
[4]
  Km: 1.7 µM
  kcat: 0.29 s⁻¹
[5]
  Km: 6 µM
  kcat: 4.8 s⁻¹
[6]
  Km: 1.5 µM
  kcat: 1.44 s⁻¹
[7]
  Km: 9 µM
  kcat: 3.8 s⁻¹
[8]
  Km: 7 µM
  kcat: 4.1 s⁻¹
[9]
  Km: 145 µM
  kcat: 0.089 s⁻¹
[10]
  Km: 29 µM
  kcat: 3.82 s⁻¹
[11]
  Km: 4.65 µM
  kcat: 2.5 s⁻¹
[12]
  Km: 758 µM
  kcat: 0.029 s⁻¹
[13]
  Km: 8.5 µM
  kcat: 2.02 s⁻¹
[14]
  Km: 1000 µM
  kcat: 3 s⁻¹
[15]
  Km: 3.2 µM
  kcat: 1.5 s⁻¹
[16]
  Km: 1.8 µM
  kcat: 2.9 s⁻¹
[17]
  Km: 5.6 µM
  kcat: 0.175 s⁻¹
[18]
  Km: 13 µM
  kcat: 0.13 s⁻¹
[19]
  Km: 3.3 µM
  kcat: 5.4 s⁻¹
